The assay addresses Spleen tyrosine kinase (Syk) (UniProt P43405). The assay can be described thus: affinity purification of mIgG2a-BCRs with protein A/G agarose beads, anti-Syk immunoblot, band intensity quantified. The conditions noted are these: no inhibitor, Ramos cells.

For “mIgG2a-BCR (wild-type mouse γ2am expressed in Ramos cells, with Igα/β) (from UniProt P11912;P40259) YF”, the response (Syk/γ2am (normalized band intensity)) runs as follows: (stimulated for 5 min with polyclonal goat anti-mouse IgG antibodies) 1.7; (unstimulated (0 min α-IgG)) 0.3.

These data come from PMC4263166.
